Test results as given in ChEMBL document CHEMBL2073844, “Pharmacological characterization of the murine and human orthologs of multidrug-resistance protein in transfected human embryonic kidney cells” (Mol Pharmacol, 1997).

Key:
[1] = substrate: C[C@]12CC[C@@H]3c4ccc(O)cc4CC[C@H]3[C@@H]1CC[C@@H]2O[C@@H]1O[C@H](C(=O)O)[C@@H](O)[C@H](O)[C@H]1O; assay: cells, lysate or membranes named
[2] = substrate: CCCCC/C=C\C\C=C/C=C/C=C/[C@@H](SC[C@@H](NC(=O)CC[C@H](N)C(=O)O)C(=O)NCC(=O)O)[C@@H](O)CCCC(=O)O; assay: cells, lysate or membranes named

B1: Multidrug resistance-associated protein 1 (Mus musculus) (protein)
chain: MALRSFCSADGSDPLWDWNVTWHTSNPDFTKCFQNTVLTWVPCFYLWSCFPLYFFYLSRHDRGYIQMTHLNKTKTALGFFLWIICWADLFYSFWERSQGVLRAPVLLVSPTLLGITMLLATFLIQLERRKGVQSSGIMLTFWLVALLCALAILRSKIISALKKDAHVDVFRDSTFYLYFTLVLVQLVLSCFSDCSPLFSETVHDRNPCPESSASFLSRITFWWITGMMVHGYRQPLESSDLWSLNKEDTSEEVVPVLVNNWKKECDKSRKQPVRIVYAPPKDPSKPKGSSQLDVNEEVEALIVKSPHKDREPSLFKVLYKTFGPYFLMSFLYKALHDLMMFAGPKILELIINFVNDREAPDWQGYFYTALLFVSACLQTLALHQYFHICFVSGMRIKTAVVGAVYRKALLITNAARKSSTVGEIVNLMSVDAQRFMDLATYINMIWSAPLQVILALYFLWLSLGPSVLAGVAVMILMVPLNAVMAMKTKTYQVAHMKSKDNRIKLMNEILNGIKVLKLYAWELAFQDKVMSIRQEELKVLKKSAYLAAVGTFTWVCTPFLVALSTFAVFVTVDERNILDAKKAFVSLALFNILRFPLNILPMVISSIVQASVSLKRLRIFLSHEELEPDSIERRSIKSGEGNSITVKNATFTWARGEPPTLNGITFSIPEGALVAVVGQVGCGKSSLLSALLAEMDKVEGHVTLKGSVAYVPQQAWIQNDSLRENILFGHPLQENYYKAVMEACALLPDLEILPSGDRTEIGEKGVNLSGGQKQRVSLARAVYSNSDIYLFDDPLSAVDAHVGKHIFEKVVGPMGLLKNKTRILVTHGISYLPQVDVIIVMSGGKISEMGSYQELLDRDGAFAEFLRTYANAEQDLASEDDSVSGSGKESKPVENGMLVTDTVGKHLQRHLSNSSSHSGDTSQQHSSIAELQKAGAKEETWKLMEADKAQTGQVQLSVYWNYMKAIGLFITFLSIFLFLCNHVSALASNYWLSLWTDDPPVVNGTQANRNFRLSVYGALGILQGAAIFGYSMAVSIGGIFASRRLHLDLLYNVLRSPMSFFERTPSGNLVNRFSKELDTVDSMIPQVIKMFMGSLFSVIGAVIIILLATPIAAVIIPPLGLVYFFVQRFYVASSRQLKRLESVSRSPVYSHFNETLLGVSVIRAFEEQERFIHQSDLKVDENQKAYYPSIVANRWLAVRLECVGNCIVLFAALFAVISRHSLSAGLVGLSVSYSLQITAYLNWLVRMSSEMETNIVAVERLKEYSETEKEAPWQIQETAPPSTWPHSGRVEFRDYCLRYREDLDLVLKHINVTIEGGEKVGIVGRTGAGKSSLTLGLFRINESAEGEIIIDGVNIAKIGLHNLRFKITIIPQDPVLFSGSLRMNLDPFSQYSDEEVWMALELAHLKGFVSALPDKLNHECAEGGENLSVGQRQLVCLARALLRKTKILVLDEATAAVDLETDNLIQSTIRTQFEDCTVLTIAHRLNTIMDYTRVIVLDKGEVRECGAPSELLQQRGIFYSMAKDAGLV
- Km [1]: 2.9 µM
- Km [2]: 0.06 µM
